What was measured:
[1] = biological target: Peptide P3 (BMP9 peptide mimetic designed from the type I receptor binding site) (UniProt Q9UK05 320-429); assay: SPR
[2] = biological target: Peptide P3r (randomly shuffled amino acid sequence of peptide P3); assay: SPR

| Kd [1] [mM] | Kd [2] [mM] | Binder |
| --- | --- | --- |
| 6.7 | 9.42 | ALK2-Fc (activin receptor like kinase 2, Fc fusion) (Fc fusion) MEDEKPKVNPKLYMCVCEGLSCGNEDHCEGQQCFSSLSINDGFHVYQKGCFQVYEQGKMTCKTPPSPGQAVECCQGDWCNRNITAQLPTKGKSFPGTQNFHLE |
| 5.8 | 4.3 | ALK3-Fc (activin receptor like kinase 3, Fc fusion) (Fc fusion) QNLDSMLHGTGMKSDSDQKKSENGVTLAPEDTLPFLKCYCSGHCPDDAINNTCITNGHCFAIIEEDDQGETTLASGCMKYEGSDFQCKDSPKAQLRRTIECCRTNLCNQYLQPTLPPVVIGPFFDGSIR |
